Experimental data from US20110135636A1 (SYMPHOGEN A S, published 2011).

B1: antibody 1024 (antibody, human IgG1, kappa, V domains shown)
VH: QVQLQQPGAELVEPGGSVKLSCKASGYTFTSHWMHWVKQRPGQGLEWIGEINPSSGRNNYNEKFKSKATLTVDKSSSTAYMQFSSLTSEDSAVYYCVRYYGYDEAMDYWGQGTSVTVSS
VL: DIVMTQAAFSNPVTLGTSASISCRSSKSLLHSNGITYLYWYLQKPGQSPQLLIYQMSNLASGVPDRFSSSGSGTDFTLRISRVEAEDVGVYYCAQNLELPYTFGGGTKLEIKR
notes: Chimeric IgG1 kappa
B2: antibody 1347 (antibody, human IgG1, kappa, V domains shown)
VH: QVQLKESGPGLVAPSQSLSITCTVSGFSLTGHGVNWVRQPPGKGLEWLGMIWGDGSTDYNSTLKSRLSISKDNSKSQVFLKMNSLQTDDTARYYCARGYGYLYYFDYWGQGTTLTVSS
VL: ENVLTQSPAIMSASPGEKVTMTCRASSSVSSSYLHWYQQKSGASPKLWIYSTSNLASGVPARFSGSGSGTSYSLTVNSVETEDAATYYCHQYSGFPFTFGSGTKLELKR
notes: Chimeric IgG1 kappa
B3: antibody 992 (antibody, human IgG1, kappa, V domains shown)
VH: EVQLQQPGSELVRPGASVKLSCKASGYTFTSYWMHWVKQRPGQGLEWIGNIYPGSRSTNYDEKFKSKATLTVDTSSSTAYMQLSSLTSEDSAVYYCTRNGDYYVSSGDAMDYWGQGTSVTVSS
VL: DIQMTQTTSSLSASLGDRVTISCRTSQDIGNYLNWYQQKPDGTVKLLIYYTSRLHSGVPSRFSGSGSGTDFSLTINNVEQEDVATYFCQHYNTVPPTFGGGTKLEIKR
notes: Chimeric mouse/human IgG1 kappa; the VL entry includes the human kappa constant region
B4: antibody 1030 (antibody, human IgG1, kappa, V domains shown)
VH: EVQLVESGGGLVKPGGSLKLSCAASGFTFSSYALSWVRQTPERRLEWVASISGVGSTYFPDSVKGRFTMSRDNARNILYLQMSSLRSEDTAMYYCARGSDGYFYAMDYWGQGTSVTVSS
VL: DIVLTQSPASLAVSLGQRATISCRASKSVSTSGYSFMHWYQLKPGQPPKLLIYLASNLESGVPARFSGSGSGTDFTLNIHPVEEEDAATYYCQHSREFPLTFGGGTKLEIKR
notes: Chimeric IgG1 kappa
B5: antibody 1261 (antibody, human IgG1, kappa, V domains shown)
VH: EVQLVESGGGLVKPGGSLKLSCAVSGFTFSSYVMSWVRQTPEKRLEWVATITSGGRNIYYLDSVKGRFTISRDNAKNTLYLQMSSLRSEDTAMYYCARHEDYRYDGYYAMDYWGQGTSVTVSS
VL: QIVLTQSPAIMSASPGEKVTITCSASSSVSYMHWFQQKPGTSPKLWIYSTSNLASGVPARFSGSGSGTSYSLTISRMEAEDAATYYCQQRSSYPYTFGGGTKLELKR
notes: Chimeric IgG1 kappa
B6: antibody 1320 (antibody, human IgG1, kappa, V domains shown)
VH: QVQLQQPGAELVKPGASMKLSCKASGYTFTNYWMHWVKQRPGQGLEWIGEINPSNGRTNYNEKFKSKATLTVDKSSSTAYMQLSSLTSEDSGVYYCAKGGNYYDYDWDYWGQGTTLTVSS
VL: DIQMTQTTSSLSASLGDRVTISCSASQDISNYLNWYQQKPDGTVKLLIYHTSTLHSGVPSRFSGSGSGTDYSLTISNLEPEDIATYYCQQYSKLPWTFGGGTKLEIKR
notes: Chimeric IgG1 kappa

biological target: T1, recombinant human EGFR extracellular domain with 6xHis (human, UniProt P00533 25-645); experiment: SPR, reference cycle of the run with mix N=6
T1 construct: In-house produced; also called 6xHis EGFR ECD; soluble human EGFR ECD; not shown: 6xHis tag
Method: (§1) SPR analysis was performed on a Biacore 3000 machine containing four flow cells. A CM5 Biacore chip was conjugated with 10,000 Resonance units (Ru) polyclonal anti-His antibody to flow cells 1-4 according to the manufacturer's instructions. […] Immediately after antigen injection the maximal binding of the Anti-EGFR mAb without competition was established in each flow cell during a reference run. Briefly 5 μl antibody at a concentration of 40 μg/ml was injected over all flow cells with captured EGFR followed by stripping of the antibody/antigen complex with a low pH acid wash (10 sec. contact time with 10 mM Glycine-HCl, pH2). After the determination of Anti-EGFR antibody maximal binding to each flow cell, a competition run was performed during the same Biacore cycle. Flow cells were first saturated with EGFR ECD antigen followed by injection of different reference antibodies or Anti-EGFR antibodies into separate flow cells using the same antigen saturating conditions as outlined above. This step was immediately followed by a second injection of Anti-EGFR antibody over the flow cell saturated with EGFR antigen and competition antibody to minimize the dissociation of either antigen or blocking antibody. Then the antibody/antigen complexes were stripped off with a low pH acid wash (10 sec. contact time with 10 mM Glycine-HCl, pH 2) and the whole cycle beginning with the reference run was repeated with a new Anti-EGFR antibody. The degree of inhibition of tested Anti-EGFR antibodies were determined by comparing the Ru max value of the individual Anti-EGFR antibody before and after competition by introduction of report points recorded two seconds before and after injection of each sample.

| Rumax reference cycle [Ru] | Binder |
| --- | --- |
| 110 | B1 |
| 91 | B2 |
| 85 | B3 |
| 87 | B4 |
| 135 | B5 |

biological target: T2, full length Cynomolgus EGFR expressed on CHO cells (Cynomolgus monkey (Macaca fascicularis), UniProt P55245 25-1210 (rhesus entry)); experiment: FACS on CHO cells transfected with full length Cynomolgus EGFR
T2 construct: The entry was cloned including the signal peptide; also called Cynomolgus full length EGFR
Method: Bound antibody was detected with a PE labelled goat F(ab′)₂ anti-human IgG FC. Gating was performed on uniform cells (SCC/FCS properties) expressing EGFR. Binding is expressed as % maximal antibody binding at 1 nM concentration.
Briefly quantitative FACS analysis was performed on a BD FACS array Bioanalyzer System to determine the number of EGFR molecules expressed on the surface of CHO cells transfected with either Human or Cynomolgus full length EGFR. […] Antibodies were incubated with cells for 14 hours on a shaker, to promote full antigen saturation at all antibody concentrations tested, while FACS buffer was added 0.02% NaN₃ and temperature kept at 4° C. to prevent receptor internalization. After incubation, cells were pelleted at 1200 RPM for 5 min at 4° C. and resuspended in 200 ul FACS buffer. Next cells were stained with a secondary Goat F(ab′)₂ anti-Human IgG FcGamma PE diluted 1:500 and incubated for 30 min at 4° C. on a shaker. Finally cells were washed twice in FACS buffer and analyzed on a BD FACS array Bioanalyzer System with gating on EGFR expressing CHO cells displaying uniform forward/side scatter properties.

| binding result | EC50 (read off the curve) [nM] | Binder |
| --- | --- | --- |
| no binding (tested: 1 nM) |  | B6 |
|  | ~0.008 | B1 |
|  | ~0.01 | B3 |

biological target: T3, full length human EGFR expressed on the cell surface (human, UniProt P00533 25-1210); experiment: cell ELISA, IgG titrated on unfixed A431-NS cells; given as ED50
T3 construct: whole, on cells; also called EGFR on A431-NS cells; EGFR on HN5 cells
Method: (§2) Cell ELISA: The ELISA was performed essentially as described in example 15 with modifications. Cells were left unfixed to allow conformational EGFR flexibility after antibody additions. Briefly, 10,000 A431-NS cells were grown in 96 well ELISA plates containing DMEM with added 0.5% FCS and 1% P/S at 37° C., 5% CO₂ overnight. […] 25 μl DMEM containing 1% BSA was added to wells used for testing of IgG antibodies without added Fab fragments. […] Next, wells were washed four times with PBS and 50 μl of a secondary monoclonal Mouse-anti-Human (Fc specific) HRP conjugate diluted 1:5000 in DMEM containing 1% BSA was added and incubated on ice for 30 min. Finally wells were washed four times with PBS and plates developed by adding 50 μl/well TMB substrate and read at 620 nm every 5-15-30 min. After incubation with substrate the reaction was stopped by addition of 1 M H₂SO₄ and absorbance read at 450 nm. The functional affinity expressed as ED50 values were calculated by subtraction of the average background binding with secondary reagent only, followed by normalization of the binding curves by plotting % maximal binding relative to each antibody tested.
(§3) Investigations of antibody induced binding enhancements were determined by concurrent ELISA binding studies, employing same secondary antibody reagent and incubation times.

| EC50 [nM] | Binder |
| --- | --- |
| 1 | B1 |
| 0.6 | B3 |
| 2.2 | B4 |

biological target: T1, recombinant human EGFR extracellular …; experiment: SPR, reference cycle of the run with mix N=6-1
Method: as §1

| Rumax reference cycle [Ru] | Binder |
| --- | --- |
| 122 | B1 |
| 107 | B2 |
| 71 | B3 |
| 74 | B4 |
| 139 | B5 |

biological target: T1, recombinant human EGFR extracellular …; experiment: SPR competition, EGFR ECD first saturated with mix N=6 1261+1347+992+1024+1030+1361
Method: as §1

| % inhibition [%] | Rumax competition cycle [Ru] | Binder |
| --- | --- | --- |
| 113 | -14 | B1 |
| 80 | 19 | B2 |
| 116 | -14 | B3 |
| 87 | 12 | B4 |
| 95 | 7 | B5 |

biological target: T3, full length human EGFR expressed on the …; experiment: cell ELISA, IgG titrated on paraformaldehyde-fixed A431-NS cells; given as ED50
Method: (§4) Cell ELISA: The relative binding affinities defined as the molar concentration giving the half maximal OD (ED50) were determined by antibody titrations on A431-NS cells. Briefly, 10,000 A431-NS cells were grown in 96 well ELISA plates containing DMEM with added 0.5% FCS and 1% P/S at 37° C., 5% CO₂ overnight. […] Then 50 μl of a secondary Goat-anti-Human (Fab specific) HRP conjugate diluted 1:5000 in DMEM containing 1% BSA was added and incubated on ice for 30 min. Finally wells were washed four times with PBS and plates developed by adding 50 μl/well TMB Plus substrate and read at 620 nm every 5-15-30 min. After incubation with substrate the reaction was stopped by addition of 1 M H₂SO₄ and absorbance read at 450 nm. The functional affinity expressed as ED50 values were calculated by subtraction of the average background binding with secondary reagent only, followed by normalization of the binding curves by plotting % maximal binding relative to each antibody tested.

| EC50 [nM] | Binder |
| --- | --- |
| 0.3 | B1 |
| 0.3 | B3 |
| 1.5 | B4 |

biological target: T3, full length human EGFR expressed on the …; experiment: cell ELISA, IgG titrated on paraformaldehyde-fixed A431-NS cells
Method: as §4

| Log ED50 | Binder |
| --- | --- |
| -0.49 | B1 |
| -0.56 | B3 |
| 0.17 | B4 |

biological target: T3, full length human EGFR expressed on the …; experiment: cell ELISA, IgG titrated on unfixed A431-NS cells
Method: as §2, §3

| Log ED50 | Binder |
| --- | --- |
| -0.01 | B1 |
| -0.24 | B3 |
| 0.33 | B4 |
